Legend:
Details in all cases: both partners purified
[1] = biological target: T1, GST-tagged U2AF2 on the human proteome microarray (human, UniProt P26368 1-475); experiment: peptide or protein array; human proteome microarray of 20,240 N-terminally GST-tagged proteins probed with 5 μg/5 ml Biotin-labeled His-PTEN, 1 h room temperature; Cy5-conjugated streptavidin; cutoff SNR ≥3 and fold change ≥5
T1 construct: U2AF2 spotted on the human proteome microarray; also called U2AF2 (HPM); source: bought: human proteome microarray (ProtoArray Human Protein Microarray, Wayen Biotechnologies); not shown: GST, N-terminal, kept

[2] = biological target: T2, GST-tagged SF3B4 on the human proteome microarray (human, UniProt Q15427 1-424); experiment: as above
T2 construct: SF3B4 spotted on the human proteome microarray; also called SF3B4 (HPM); source: bought: human proteome microarray (ProtoArray Human Protein Microarray, Wayen Biotechnologies); not shown: GST, N-terminal, kept
T2 sequence (looked up): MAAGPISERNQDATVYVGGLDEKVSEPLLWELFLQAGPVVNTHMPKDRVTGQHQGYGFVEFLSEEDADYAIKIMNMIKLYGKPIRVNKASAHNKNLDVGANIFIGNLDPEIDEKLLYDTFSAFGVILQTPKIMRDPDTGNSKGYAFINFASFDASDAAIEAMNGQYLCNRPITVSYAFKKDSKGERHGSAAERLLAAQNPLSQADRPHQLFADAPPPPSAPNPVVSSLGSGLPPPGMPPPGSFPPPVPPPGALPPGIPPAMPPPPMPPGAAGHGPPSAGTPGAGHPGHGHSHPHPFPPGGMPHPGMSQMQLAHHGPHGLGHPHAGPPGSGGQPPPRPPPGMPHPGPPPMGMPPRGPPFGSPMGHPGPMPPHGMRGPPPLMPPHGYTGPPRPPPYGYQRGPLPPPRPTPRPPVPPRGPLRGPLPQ

[3] = biological target: T3, GST-tagged HNRNPK on the human proteome microarray (human, UniProt P61978 1-463); experiment: as above
T3 construct: HNRNPK spotted on the human proteome microarray; also called HNRNPK (HPM); source: bought: human proteome microarray (ProtoArray Human Protein Microarray, Wayen Biotechnologies); not shown: GST, N-terminal, kept

[4] = biological target: T4, GST-tagged HNRNPU on the human proteome microarray (human, UniProt Q00839 1-825); experiment: as above
T4 construct: HNRNPU spotted on the human proteome microarray; also called HNRNPU (HPM); source: bought: human proteome microarray (ProtoArray Human Protein Microarray, Wayen Biotechnologies); not shown: GST, N-terminal, kept

[5] = biological target: T5, GST-tagged USP7 (HAUSP7) on the human proteome microarray (human, UniProt Q93009 1-1102); experiment: as above
T5 construct: USP7 spotted on the human proteome microarray; source: bought: human proteome microarray (ProtoArray Human Protein Microarray, Wayen Biotechnologies); not shown: GST, N-terminal, kept

[6] = biological target: T6, GST-tagged APC3 (CDC27) on the human proteome microarray (human, UniProt P30260 1-824); experiment: as above
T6 construct: APC3 (CDC27) spotted on the human proteome microarray; source: bought: human proteome microarray (ProtoArray Human Protein Microarray, Wayen Biotechnologies); not shown: GST, N-terminal, kept

His-tagged U2AF2 = biological target: T7, His-tagged U2AF2 (UniProt P26368 1-475); experiment: pull-down; 15 μg His-tagged U2AF2 mixed with 4 μg GST or GST-PTEN bound to glutathione-sepharose beads in 0.5 ml binding buffer, overnight at 4 °C; immunoblot for His and GST
T7 construct: Recombinant full-length U2AF2; also called His-U2AF2; source: E. coli (pET-28a), purified (nickel chelating, ion exchange, gel filtration)

Measured: binding result

B1: Biotin-labeled His-PTEN (natural protein)
chain: not shown
modifications: biotin (sites not given)
notes: Recombinant full-length PTEN; also called biotinylated PTEN protein; PTEN−biotin conjugates; source: E. coli (pET-28a), purified (nickel chelating, ion exchange, gel filtration), labeled with biotin
not listed: His-tagged U2AF2
binds: all other assays above

B2: GST-tagged PTEN (natural protein)
chain: not shown
notes: PTEN CDS inserted into the pEGX-4T-3 vector (so in the source); also called GST-PTEN
binds: His-tagged U2AF2
